Paper PMC4072508, “Genome-Wide Prediction and Validation of Peptides That Bind Human Prosurvival Bcl-2 Proteins” (PLoS Computational Biology, 2014)

T1: Mcl-1, Q07820
T1 chain: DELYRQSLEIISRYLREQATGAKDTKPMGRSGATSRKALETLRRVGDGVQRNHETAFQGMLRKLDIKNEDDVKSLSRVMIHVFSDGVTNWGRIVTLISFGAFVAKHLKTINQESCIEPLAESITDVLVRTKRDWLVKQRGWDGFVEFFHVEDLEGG


Tests used:
Mcl-1, Q07820 = biological target: T1, Mcl-1, Q07820; assay: peptide SPOT array, c-Myc-tagged receptor at 1 uM or 100 nM, anti-c-Myc-Cy3
Bcl-xL, Q07817 = assay: as above
Chain of Bcl-xL, Q07817 (Q07817 1-209): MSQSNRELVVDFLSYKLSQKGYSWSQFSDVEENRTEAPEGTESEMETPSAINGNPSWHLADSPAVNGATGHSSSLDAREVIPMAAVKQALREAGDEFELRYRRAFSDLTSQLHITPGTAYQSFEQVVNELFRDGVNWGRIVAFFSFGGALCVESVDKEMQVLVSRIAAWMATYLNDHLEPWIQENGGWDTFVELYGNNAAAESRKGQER

Binder	SPOT signal as a fraction of Bim BH3's signal on the same receptor and array (Mcl-1, Q07820)	SPOT signal as a fraction of Bim BH3's signal on the same receptor and array (Bcl-xL, Q07817)
VEQFSEASQQMAELLEVLVLRLENYE [HAP1]	0.02	0.02
RIEMWISILEDNELGEYAAVELHQAK [KIF13A]	0.02	0.03
FRFAQLCGLHIVIHADELEELMCYYQ [CLTCL1]	0.02	0.02
SQGDKRVAFFMRKGLDCLSKWVGESE [ATAD2]	0.03	0.06
AVLCVECGYKYRFFGEDAEIAARELN	0.01	0.01
GLTWDPVGKYIASQLDDRSLKVWRTL [HIRA]	0.55	0.86
SVRYYPSGDAFASGLDDATCRLYDLR [GNB5]	0.02	0.02
IVGGCVVGIADARFADFIRGMLKLIL [DIRC2]	0.14	0.15
RHFVIRRGQVDREIAEEYGGVMVSFP [HDLBP]	0.03	0.02
QRLINLVGESLRLLLNTFVALSDLRC [BAT3]	0.03	0.08
EKVLIFGGDILKFALDALLALWRVER [ADCY10]	0.03	0.04
RGAMLSLATGLAHSLSDLSLLVPEIE	0.05	0.06
KKCQDMIMTEDTNAGDDVVVFYNDKA [ITPR3]	0.01	0.02
TLHFNQRGTWDASGSDDLKVVVWDWV [DCAF8]	0.02	0.02
GLFSATSGVDLKYVADTFGQEVRPVS [DDX7]	0.02	0.02
LRVSTKIGSCDKSVGEVMGIGRSFEE	0.02	0.02
ERAISCMGQIDCNLGDNLGSDLPNTL [CAND1]	0.01	0.01
HGTSSRIGSSMKSVGEVMAIGRTFEE [CPS1]	0.02	0.02
VILADPDGHEICFVGDEAFRELSKMD [GLOD4]	0.01	0.02
SKFVILSAHKDVFIGDTLSRQAKAAD [BCAR1]	0.02	0.01
RGAMLSLATGDAHSGSDLSLLVPEIE	0.04	0.06
LRVSTKIGSCMKSVLEVMGIGRSFEE	0.04	0.04
AVLCVECGYKYRFFLEDAEIAARELN	0.02	0.02

Second part, the binder after the results:

SPOT signal as a fraction of Bim BH3's signal on the same receptor and array (Mcl-1, Q07820)	SPOT signal as a fraction of Bim BH3's signal on the same receptor and array (Bcl-xL, Q07817)	Binder
0.01	0.01	LGLGELAGLTDANEADSLTYDIANNK [STRN]
0.01	0.01	IQQDLGCGASDGVISDNLLVTGGQGC
0.01	0.01	SALETQVAAADQALADDYLAQLSLEP [TRO]
0.07	0.12	AKFLLYLGHSLSTWLDRMWHFAVSVF [SLC40A1]
0.02	0.02	DLLGMVVVDEDHMLGDSHRGYLLELL [POLQ]
0.02	0.02	QLSKPGAALYLQSIGEGFKEAVQYVL [SOS1]
0.02	0.01	VFDDLRGSVSLSWVLDSTGVILVLTT
0.04	0.06	SKFVILSAHKLVFILDTLTRQVTAQD [NEDD9]
0.01	0.01	IQQDLGCGASLGVILDNLLVTGGQGC
0.02	0.02	ITVVGDVGGRIAIILDDIIDDVESFV [PRPSAP1]
0.03	0.07	RVSWNITGTVDASSGDDGCVRLWKAN [SEH1L]
0.12	0.19	NKTMTQLSSTLARCLKDILGFAVMFF [PKD2L1]
0.01	0.02	VFDDLRGSVSLSWVGDSTGVILVLTT
0.01	0.01	RCELQICGLADADAGEYLCVCGQERT [OBSCN]
0.02	0.02	VFDDLRGSVSDSWVGDSTGVILVLTT
0.05	0.07	AIKWDPTGNLLASCLDDMTLKIWSMK [TBL1XR1]
0.53	1	SRQPRDFGDSLARGGKGFLRGVVGGV [VPS13C]
0.02	0.02	HPRKESQVRQLAWVGDGVWVSIRLDS [SPAG9]
